Positions count from the first letter of the chain named. Names and notes keep the numbering of the source.
T1: Recombinant CbpF from Fn ATCC 25586 (group I), passenger domain, Q8RIS0
T1 chain: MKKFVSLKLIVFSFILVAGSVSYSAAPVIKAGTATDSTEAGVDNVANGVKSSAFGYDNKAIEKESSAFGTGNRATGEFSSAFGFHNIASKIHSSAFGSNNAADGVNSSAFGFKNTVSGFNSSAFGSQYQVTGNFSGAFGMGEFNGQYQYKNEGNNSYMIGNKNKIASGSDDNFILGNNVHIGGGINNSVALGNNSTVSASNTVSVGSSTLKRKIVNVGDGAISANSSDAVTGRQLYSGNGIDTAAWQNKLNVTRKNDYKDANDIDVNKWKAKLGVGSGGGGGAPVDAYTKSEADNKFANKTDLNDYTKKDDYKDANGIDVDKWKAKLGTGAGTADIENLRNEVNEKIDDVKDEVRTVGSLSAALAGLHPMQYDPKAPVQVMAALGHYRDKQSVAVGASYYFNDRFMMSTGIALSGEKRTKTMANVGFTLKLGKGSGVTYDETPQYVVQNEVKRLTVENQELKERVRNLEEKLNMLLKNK

B1: CEACAM1-3-Fc (containing N-A1-B1 domains) V96A (protein)
chain: QLTTESMPFNVAEGKEVLLLVHNLPQQLFGYSWYKGERVDGNRQIVGYAIGTQQATPGPANSGRETIYPNASLLIQNVTQNDTGFYTLQVIKSDLANEEATGQFHVYPELPKPSISSNNSNPVEDKDAVAFTCEPETQDTTYLWWINNQSLPVSPRLQLSNGNRTLTLLSVTRNDTGPYECEIQNPVSANRSDPVTLNVTYGPDTPTISPSDTYYRPGANLSLSCYAASNPPAQYSWLINGTFQQSTQELFIPNITVNNSGSYTCHANNSVTGCNRTTVKTIIVTGK
B2: CEACAM1-3-Fc (containing N-A1-B1 domains) Q89N (protein)
chain: B1 chain with Q89N, A96V
B3: CEACAM1-Fc, comprising all extracellular CEACAM1 domains fused to the human immunoglobulin G (IgG) Fc domain, P13688 I91A (protein)
chain: QLTTESMPFNVAEGKEVLLLVHNLPQQLFGYSWYKGERVDGNRQIVGYAIGTQQATPGPANSGRETIYPNASLLIQNVTQNDTGFYTLQVAKSDLVNEEATGQFHVYPELPKPSISSNNSNPVEDKDAVAFTCEPETQDTTYLWWINNQSLPVSPRLQLSNGNRTLTLLSVTRNDTGPYECEIQNPVSANRSDPVTLNVTYGPDTPTISPSDTYYRPGANLSLSCYAASNPPAQYSWLINGTFQQSTQELFIPNITVNNSGSYTCHANNSVTGCNRTTVKTIIVTELSPVVAKPQIKASKTTVTGDKDSVNLTCSTNDTGISIRWFFKNQSLPSSERMKLSQGNTTLSINPVKREDAGTYWCEVFNPISKNQSDPIMLNVNYNALPQENGLSPG

Legend:
[1] = target: Recombinant CbpF from clinical strain 2B3 (group II), passenger domain, pOPINE construct; test: ELISA; conditions: 3 pmol CbpF; 15 fmol CEACAM1-3-Fc mutant; developed for 5 hrs at 37°C; parent: est. 0.66; read off a plot
[2] = target: Recombinant CbpF from Fn ATCC 25586 (group I), passenger domain (UniProt Q8RIS0); test: ELISA; conditions: 3 pmol CbpF; 15 fmol CEACAM1-3-Fc mutant; developed for 5 hrs at 37°C; parent: est. 0.43; read off a plot
[3] = target: Recombinant CbpF from Fn ATCC 25586 (group I), passenger domain (Fusobacterium nucleatum ATCC 25586) (UniProt Q8RIS0); test: ELISA; purified CbpFI and CbpFII (3 pmol) immobilised on plates; 1 pmol of each CEACAM-Fc variant; anti-human secondary antibody
[4] = target: CEACAM binding protein of Fusobacterium (CbpF) of F. vincentii ATCC 49256, FNV1729 (Fusobacterium vincentii ATCC 49256 (endogenous)); test: migration on SDS-PAGE and Western blot; native CbpF in lysate or co-precipitate runs at ~150 kDa against ~50 kDa predicted for the mature chain; Fn lysate gives a ~50 kDa band after 70% formic acid
[5] = target: CEACAM binding protein of Fusobacterium (CbpF) of F. nucleatum ATCC 25586, FN1499 (Fusobacterium nucleatum ATCC 25586 (endogenous)); test: as above
[6] = target: T1, Recombinant CbpF from Fn ATCC 25586 …; test: ELISA; conditions: chain shown with the change; 3 pmol CbpF; 15 fmol CEACAM1-3-Fc mutant; developed for 5 hrs at 37°C; parent: est. 0.43; read off a plot
[7] = target: Recombinant CbpF from clinical isolate 2B3 (protein of Figure 8, dot blot and Figure S9); test: ELISA; conditions: chain shown with the change; read at 2 µg.ml-1 of the Fc construct (highest point of the titration); recombinant CbpF immobilised; parent: est. 1.9; read off a plot

Molecule | response [1] | response [2] | further results
CEACAM1-3-Fc (containing N-A1-B1 domains) Q44L | 0.021 A405 | 0.027 A405 | –
CEACAM1-3-Fc (containing N-A1-B1 domains) V96A | 0.87 A405 | – | –
CEACAM1-3-Fc (containing N-A1-B1 domains) G47L | 0.008 A405 | 0.007 A405 | –
CEA-Fc (from UniProt P06731 35-685) (Fc fusion) | – | – | binding relative to group II CbpF [3]: 50%
CEACAM1-3-Fc (containing N-A1-B1 domains) Q89N | 0.17 A405 | – | –
CEACAM1-3-Fc (containing N-A1-B1 domains) F29Y | 0.082 A405 | 0.017 A405 | –
CEACAM1-3-Fc (containing N-A1-B1 domains) I91L | 0.006 A405 | 0.022 A405 | –
CEACAM1-3-Fc (containing N-A1-B1 domains) I91G | 0.017 A405 | 0.066 A405 | –
CEACAM binding protein of Fusobacterium (CbpF) of F. vincentii ATCC 49256, FNV1729 (natural protein) | – | – | stoichiometry N [4]: 3
CEACAM1-3-Fc (containing N-A1-B1 domains) F29R | 0.013 A405 | 0.013 A405 | –
CEACAM1-3-Fc (containing N-A1-B1 domains) Y34A | 0.043 A405 | 0.021 A405 | –
CEACAM1-3-Fc (containing N-A1-B1 domains) I91A | 0.01 A405 | 0.02 A405 | –
CEACAM1-3-Fc (containing N-A1-B1 domains) Q44E | 0.017 A405 | 0.02 A405 | –
CEACAM1-3-Fc (containing N-A1-B1 domains) Q44R | 0.013 A405 | 0.02 A405 | –
CEACAM1-3-Fc (containing N-A1-B1 domains) F29I | 0.017 A405 | 0.012 A405 | –
CEACAM1-3-Fc (containing N-A1-B1 domains) Y34S | 0.012 A405 | 0.017 A405 | –
CEACAM1-3-Fc (containing N-A1-B1 domains) F29G | 0.012 A405 | 0.012 A405 | –
CEACAM1-Fc, comprising all extracellular CEACAM1 domains fused to the human immunoglobulin G (IgG) Fc domain (from UniProt P13688 35-428) (Fc fusion) | – | – | binding relative to group II CbpF [3]: 75%
CEACAM binding protein of Fusobacterium (CbpF) of F. nucleatum ATCC 25586, FN1499 (natural protein) | – | – | stoichiometry N [5]: 3
CEACAM1-3-Fc (containing N-A1-B1 domains) Y34F | 0.013 A405 | 0.017 A405 | –
B1 | – | – | response [6]: 0.4 A405
B2 | – | – | response [6]: 0.024 A405
B3 | – | – | response [7]: 0 A405

Source: publication PMC6346709
